Data on 1 sequence can be found in patent US20140128287.

Bounds are passed on as bounds.

The data set addresses GEV (Gal4 DBD - estrogen receptor - VP16) (synthetic construct) (UniProt P04386). In words: cell_activity. Conditions: yeast reporter with three pairs of GEV sites, 15 min after beta-estradiol.

Chain of GEV (Gal4 DBD - estrogen receptor - VP16) (synthetic construct) (P04386 1-93): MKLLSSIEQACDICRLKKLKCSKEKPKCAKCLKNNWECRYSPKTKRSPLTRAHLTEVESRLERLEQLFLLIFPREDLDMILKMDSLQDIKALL

Turning to “CGGNNNNNNNNNNNCCG (double strand) [GAL1 promoter UASgal (Gal4 consensus site)]”, the activity (fold induction of GFP transcripts) was greater than 50.
